# According to the DeepSol protein solubility set:
# Assay: soluble on expression in E. coli; label from the status in PepcDB or PDB records
row,Sequence,soluble on expression in E. coli
1,GPGSMRSTAPLFMAQGIWAGFRYYLGHFFYPNMYREYLSVQNAHKIERALRIQTAIKANRVDYRALLALPVTDHAHPYKMEYPWEKVINTDKSKLSGYGKWYASKIMCFYEGLQYHKYGCLQDDLINAHGWWNRAARTRAPQDKIVHGDRRVMRARVLRDKYIYEPKSRWVHPIDNVAYFGPYVMMVCDEWEEKWGFFAGQEVEY,not soluble
2,GPGSMSAAACSWRHTEWTPYEVLNVPPSAPIGDIRAAFKCMALHTHPDKATVTTSARRASGSGATSCSEFPVSFHIVKEASEMLLDPYLRAAYDAARSQALTREVGAISDTYSLMDDFVRVRMDGDESDRQRVHVYQRECRCGGVYEVAVFPEAPAGSGEDEDVPLTYSARTLRCECDSCSLVVEVVA,soluble
3,GPGSMSAAGVTVRRAEREDTQRMYDLIMELAIYERAPECVVVSKAQMEEEGFGERPLWSAFVAELQETNDVKPRVIGMALYYYRYSTWRGRMLYLEDFIVTESHRGIGAGKMLFERVLQQAKEEGCHGMVWQALDWNAPAIEFYKKYDAEIDPGWVNCMLKF,soluble
4,GPGSMSQQNAVEALLARLQMGDTIPAFQSMGVDRIVSLRKMSEEALSQAVPDPEQRQALMDAIESRGHLQSRRAGPPAGQPHPPRSADADFARGGNDEGRGGYAPRGDRGGRIARGGRGGGRGAGAPNGDDAARVCRHVFTPEGCKYGDKCRYSHDENDRRRAQEVPTGSGMAQRSLERPPPNFKFSIEVEIPTERIKYLLGSQGNNMKFINETCGTYNERFDHVDEKEETFTIRILGGSEEAINKAKEMLLLSAGVKREEEKKDRFQYAVNELDANTHAARLFAACNTKNKDTTRHLSDSIMRNIVSSFHFVRPQEVRHFYMYTSSSDKDKLEMVSKIVSQLKGVQAILFCDQKRVEEMCKGSQRIARHFNGVEPQFVYRQLSKEDRMMALERFKKGVENENGVRQRLLVTNEDYAKLARKTIIPYVNLVINFSVPRAEEYYVLQSQVAGRQGTIGASFLCVSNYEEALFRELEKNIQFERFEDEEHFRTTAVELSYDTTAQPLTPEDADPPADWREHLNDKKPRQNFGKRR,soluble
5,GPGSMSTPNLDALLGVPLAAELVARAGGLLALCKLSDAALRMLGTEEFQSIASSSRARQLHAGLLLKAPLFTNAFGDEEEVDTTDRKAAQKGAAQLGRKCALVAKADLAGAFSDGSLGEAEKEKLNAAFTRLLAEGKVTAEDTQALAAPFVYVHGDAAKHRRGGVKERKKRESQQESISVVARATQRVRMGVSEEEQVQQLLQREDIRSEFAKERAQQLLKESRKRARESVHDEYDDLQNISL,not soluble
6,GPGSMTEHICASLVLTRGPEGLQRRLPVRLPLSGKPITIGRAIDNDVVLEMDLIFSSQWHCQMFAQKCEPETSERVEEREAASDPSRCEGRHVDCEGQTEIPVKEQYSLWLVDVGSSNGTFVNGIRVASSAPTPLHHGDVIVLGGMRDVEVGKSLPMEDLPLEIVTWRVAMEGKSEEGFGFVATPPVFLSMEFVISQARQRALGALQDSPDPKVSTTSPLKLPLKRMRHEQETGSNKLYDDGDVTPKRRIREVSYPSGEDRSGGELARRSGTVAAYLDPNEANAWEVTTNSSSDVASTTGLPCPSSKATASRGYCNSDALAEPTKEDARETRVAPAVARETVQ,soluble
7,GPGSMTRRNAMSDNTTSTSSVTPERYPFCIVWTDIPLVSWLFPFVGHVGICDSTGRIFDFEGSYCIGVDHMLFGNPVKYWDISAMYVPSSRFPPGGLLSGDVEERRRRETEEYDRALSGVTTRFRKTQTYNFFTNNCHSYVASVLEEMTNGPRRPWNMFWIAWGLAIHGRSLLKSPSSLPRYRRPLCDRRCTLGLTRSK,not soluble
8,GPGSMTTGQQQSIEGLRNELQQLEDSLMVREEALQRKRQQSERLNNELVDAYLSTTSQEESRASANEAYRTASRAKQVLENSETQSNESMWSNRDDYVSQLMAADEERKGVEADIGEVSSRIKELREDKVDAQKRLTVARLMSMLDDLQSLLKKKVYGPSGSEETRAQELLKTVQELSRERERTIHLLSKKEREMASLIDLKQRRIEELRKEFTRNVSMYADSNKRELLNVAQRIQGERHQLLEEMERLEEANRKITDVLMDTKYTTESAIKDRDTALSAVETMGVSTNPERECLQLRERIQKANAERRMYVLKMEEVQSSIDEDTVMYNTRMSKLRKEILFYQDETVRFEKENKDLKHLCDTLAGSLDGSH,not soluble
9,GPGSMTTQNGVNYSQREVVHRMPDWVANRRASVNRGHVAPPLTADGMNPRKASFSGSNGEKQGAVYNNYTERVSSRSGGDRIFSFDNRSTSRRESGTNVSVRSLQPVAGRTAVTHTIRFRGARWSQALSNMSVALERAIKEDVAACCGISSERIGQMKMKFTDRLVVTFVLDHSHDPSEESRFHNQLKVYNFWRTVALYPRK,soluble
10,GPGSMVGPYNSKAGVVLVCDIFGLLPNSKRFADVLAEHGFLVAMPDFFGPLAWPESEWPADFQSMRWLQYVEKITQFDAFVPQMEAAIAVLRQMGCAKVGAIGMCWGAALPFMMAAQGKIDAAAAAHPSFFTADAVRAAKTPVLVLPSKDEPPMDDVEAAVNSHPMEPHVHKRFDALHHGFFGARYNPDAYTAEELKDVETARQLVLDFFKKSLH,not soluble
11,GPGSMVVAVYPGTFDPLTRGHEDLVRRASSIFDTLVVGVADSRAKKPFFSLEERLKIANEVLGHYPNVKVMGFTGLLKDFVRANDARVIVRGLRAVSDFEYEFQMAGMNRYLLPDVETMFMTPSDQYQFISGTIVREIAQLGGDVSKFVFPSVEKWLTEKVAAMAQGPSA,soluble
12,GPLGSEQIGKLRSELEMVSGNVRVMSEMLTELVPTQAEPADLELLQELNRTCRAMQQRVLELIPQIANEQLTEELLIVNDNLNNVFLRHERFERFRTGQTTKA,soluble
13,GPLGSGGGTIAMLNEISSDTLEQLYSLAFNQYQSGKYEDAHKVFQALCVLDHYDSRFFLGLGACRQAMGQYDLAIHSYEEGAVMDIKEPRFPFHAAECLLQKGELAEAESGLFLAQELIANKPEFKELSTRVSSMLEAIKLKKEMKHE,soluble
14,GPLGSMINAKTKVIGLIGHPVEHSFSPIMHNAAFKDKGLNYVYVAFDVLPENLKYVIDGAKALGIVGFNVTIPHKIEIMKYLDEIDKDAQLIGAVNTIKIEDGKAIGYNTDGIGARMALEEEIGRVKDKNIVIYGAGGAARAVAFELAKDNNIIIANRTVEKAEALAKEIAEKLNKKFGEEVKFSGLDVDLDGVDIIINATPIGMYPNIDVEPIVKAEKLREDMVVMDLIYNPLETVLLKEAKKVNAKTINGLGMLIYQGAVAFKIWTGVEPNIEVMKNAIIDKITK,soluble
15,GPLGSMPGPAAGSRARVYAEVNSLRSREYWDYEAHVPSWGNQDDYQLVRKLGRGKYSEVFEAINITNNERVVVKILKPVKKKKIKREVKILENLRGGTNIIKLIDTVKDPVSKTPALVFEYINNTDFKQLYQILTDFDIRFYMYELLKALDYCHSKGIMHRDVKPHNVMIDHQQKKLRLIDWGLAEFYHPAQEYNVRVASRYFKGPELLVDYQMYDYSLDMWSLGCMLASMIFRREPFFHGQDNYDQLVRIAKVLGTEELYGYLKKYHIDLDPHFNDILGQHSRKRWENFIHSENRHLVSPEALDLLDKLLRYDHQQRLTAKEAMEHPYFYPVVKEQSQ,soluble
16,GPLGSMSFTNATFSQVLDDLSARFILNLPAEEQSSVERLCFQIEQAHWFYEDFIRAQNDQLPSLGLRVFSAKLFAHCPLLWKWSKVHEEAFDDFLRYKTRIPVRGAIMLDMSMQQCVLVKGWKASSGWGFPKGKIDKDESDVDCAIREVYEETGFDCSSRINPNEFIDMTIRGQNVRLYIIPGISLDTRFESRTRKEISKIEWHNLMDLPTFKKNKPQTMKNKFYMVIPFLAPLKKWIKKRNIANNTTKEKNISVDVDADASSQLLSLLKS,soluble
17,GPLGSPEFPHPLQDSWSYYLFQFRKALDWDECLEKVATFSTIEDFWSVLTHTVRPREITYGKDLYMFKSDIMPKWEDPKNENGGRWLINVTARQDVDFLWDELLMLLIGSDWDTDEEDRQICGAVFQPRSRGSKLSVWLTSDNEEETILSIGRRIKERLELEDTIYFQPVSDQRSQTRGSDICTGKYEI,soluble
18,GPLGSTRAKTQEEIKREEEQAIDEVLKIEFLELALGYQLISLADMKQGGDLLERIRGIRKKIASDYGFLMPQIRIRDNLQLPPTHYEIKLKGIVIGEGMVMPDKFLAMNTGFVNREIEGIPTKEPAFGMDALWIDAKNKEEAIIQGYTIIDPSTVIATHTSELVKKYAEDFITKDEVKSLLERLAKDYPTIVEESKKIPTGAIRSVLQALLHEKIPIKDMLTILETITDIAPLVQNDVNILTEQVRARLSRVITNAFKSEDGRLKFLTFSTDSEQFLLNKLRENGTSKSLLLNVGELQKLIEGVSEEAMKVLQKGIAPVILIVEPNLRKALSNQMEQARIDVVVLSHAELDPNSNFEALGTIHIN,soluble
19,GPLPVDLRGKTAFVAGVADSNGYGWAICKLLRAAGARVLVGTWPPVYSIFKKGLESSRFEQDSFYAQEPSSKVAAEAAEKPVDLVFDKIYPLDAVFDTPQDVPPEVSSNKRYAGVGGFTISEVAEAVRADVGQIDILVHSLANGPEVTKPLLQTSRKGYLAAVSSSSYSFVSLLQHFLPLMKEGGSALALSYIASEKVIPGYGGGMSSAKAALESDCRTLAFEAGRARAVRVNCISAGPLKSRAASAIGKAGDKTFIDLAIDYSEANAPLQKELESDDVGRAALFLLSPLARAVTGATLYVDNGLHAMGQALDSKSLTP,soluble
20,GPPSGKTYMGWWGHMGGPKQKGITSYAVSPYAQKPLQGIFHNAVFNSFRRFKSQFLYVLIPAGIYWYWWKNGNEYNEFLYSKAGREELERVNV,soluble
21,GQGKLISVKTDVLDLTINTRGGDVEQALLPAYPKELNSTQPFQLLETSPQFIYQAQSGLTGRDGPDNPANGPRPLYNVEKDAYVLAEGQNELQVPMTYTDAAGNTFTKTFVLKRGDYAVNVNYNVQNAGEKPLEISSFGQLKQSITLPPHLDTGSSNFALHTFRGAAYSTPDEKYEKYKFDTIADNENLNISSKGGWVAMLQQYFATAWIPHNDGTNNFYTANLGNGIAAIGYKSQPVLVQPGQTGAMNSTLWVGPEIQDKMAAVAPHLDLTVDHHHHHH,soluble
22,GQVQLVESGPGLVAPSQSLSITCTVSGISLSRYNVHWVRQSPGKGLEWLGMIWGGGSIEYNPALKSRLSISKDNSKSQIFLKMNSLQTDDSAMYYCVSYGYGGDRFSYWGQGTLVTVS,soluble
23,GQYTFSMPSDSHVSSCSEDWVGYQRKCYFISTVKRSWTSAQNACSEHGATLAVIDSEKDMNFLKRYAGREEHWVGLKKEPGHPWKWSNGKEFNNWFNVTGSDKCVFLKNTEVSSMECEKNLYWICNKPYK,soluble
24,GSDHVDLREHVIDVPPQEVICKDNVVVTVDAVVYYQVIDPVKAVYNVSDFLMAIVKLAQTNLRAIIGEMELDETLSGRDIINARLREELDKITDRWGVKITRVEIQRIDPPKD,soluble
25,GSDLTYAYLVGLFEGDGYFSITKKGKYLTYELGIELSIKDVQLIYKIKKILGIGIVSFRKRNEIEMVALRIRDKNHLKSFILPIFEKYPMFSNKQYDYLRFRNALLSGIISLEDLPDYTRSDEPLNSIESIINTSYFSAWLVGFIEAEGCFSVYKLNKDDDYLIASFDIAQRDGDILISAIRKYLSFTTKVYLDKTNCSKLKVTSVRSVENIIKFLQNAPVKLLGNKKLQYLLWLKQLRKISRYSEKIKIPSNY,soluble
26,GSGYVFGGFIRADIKKWYIQPNIYYMYNSSSIDVNQTSTDVKSKSVNGDVLLGYRFFKFTDLTYLRLFAGPGYSNINTLKYDSCTSDYSTDNILLNAGVGLDFWKLTFDLKYQRGLTDIDKSSNTMHTSLFMLTAGFKIL,not soluble
